Assay results from patent US20170044259A1 (CYTOMX THERAPEUTICS, published 2017).
Numbering of substitutions follows the chain as printed.

Columns and labels:
[1] = target: T1, human PD-1-Fc (R and D systems, Minneapolis, Minn.) (human, UniProt Q15116 25-167); assay: plate ELISA on adsorbed human PD-1-Fc, single site saturation fit
T1 construct: bought; also called hPD-1-Fc; hPD-1; not shown: Fc part of the bought fusion

[2] = target: T1, human PD-1-Fc (R and D systems, …); assay: plate ELISA on human PD-1-Fc; reference A1.4
[3] = target: T1, human PD-1-Fc (R and D systems, …); assay: inhibition ELISA on human PD-1-Fc; competitor 2 nM biotinylated PD-L1 (hPDL1/Fc)
[4] = target: T1, human PD-1-Fc (R and D systems, …); assay: inhibition ELISA on human PD-1-Fc; competitor 2 nM biotinylated PDL2 (hPDL2/Fc)
[5] = target: T2, mouse PD-1 expressed on HEK293 cells (mouse, UniProt Q02242 25-288); assay: flow cytometry on mPD-1 HEK293 cells, titration from 150 nM
T2 construct: whole, on cells; also called HEK293-mPD-1; mPD-1 HEK293 cells
T2 sequence (looked up): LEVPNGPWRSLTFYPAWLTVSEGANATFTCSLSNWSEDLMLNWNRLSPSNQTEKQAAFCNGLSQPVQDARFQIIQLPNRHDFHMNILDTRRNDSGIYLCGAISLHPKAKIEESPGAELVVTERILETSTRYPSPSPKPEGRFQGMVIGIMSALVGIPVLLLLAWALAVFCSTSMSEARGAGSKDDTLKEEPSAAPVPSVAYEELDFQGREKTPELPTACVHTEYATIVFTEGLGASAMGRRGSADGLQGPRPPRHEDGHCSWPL

T1 sequence (Q15116 25-167 limits assumed): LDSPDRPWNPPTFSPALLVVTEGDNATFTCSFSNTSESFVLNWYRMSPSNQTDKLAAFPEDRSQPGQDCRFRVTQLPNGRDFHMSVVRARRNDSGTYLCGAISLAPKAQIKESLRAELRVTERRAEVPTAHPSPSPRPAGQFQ

B1: m245-M5-MHC729 (antibody, V domains shown)
VH: EVQLVESGGGLVKSGGSLKLSCAHSGFSFSSYDMSWVRQTPAKRLEWVATISGGGRYTYYPDSVKGRFTISRDNAKNTLYLQMSGLRSEDTAMYYCASNYYGFDYWGQGTTLTVSS
VL: DIVMTQSHKFMSTSVGDRVSITCKASQDVGTAVAWYQQKPGQSPKLLIYWASTRHTGVPDRFTGSGSGTDFTLTISNVQSEDLADYFCQQYSSYPWTFGGGTKLEIK
notes: mouse hybridoma antibody, mIgG1/K
Kd [1]: 0.34 nM

B2: PD-1 1.4 PD002 2001 (antibody, human IgG4 S228P, kappa)
heavy: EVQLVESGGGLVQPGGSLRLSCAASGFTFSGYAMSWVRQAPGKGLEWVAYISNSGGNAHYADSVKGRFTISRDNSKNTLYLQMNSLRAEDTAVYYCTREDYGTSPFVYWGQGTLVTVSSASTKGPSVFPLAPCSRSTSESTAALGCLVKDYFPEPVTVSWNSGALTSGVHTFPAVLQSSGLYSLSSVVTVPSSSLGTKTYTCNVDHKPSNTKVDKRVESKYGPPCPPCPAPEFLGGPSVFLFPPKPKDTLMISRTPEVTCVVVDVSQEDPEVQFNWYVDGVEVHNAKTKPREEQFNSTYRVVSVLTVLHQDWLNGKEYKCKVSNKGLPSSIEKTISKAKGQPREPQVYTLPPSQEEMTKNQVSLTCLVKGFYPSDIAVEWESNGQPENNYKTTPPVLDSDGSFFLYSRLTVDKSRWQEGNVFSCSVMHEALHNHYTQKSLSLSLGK
light: QGQSGQGDVNCAIWYSVCTTVPGGGSSGGSISSGLLSGRSDNHGGGSDIQLTQSPSSLSASVGDRVTITCRASESVDSYGISFMNWFQQKPGKAPKLLIYAASNQGSGVPSRFSGSGSGTDFTLTISSMQPEDFATYYCQQSKDVPWTFGQGTKLEIKRTVAAPSVFIFPPSDEQLKSGTASVVCLLNNFYPREAKVQWKVDNALQSGNSQESVTEQDSKDSTYSLSSTLTLSKADYEKHKVYACEVTHQGLSSPVTKSFNRGEC
notes: also called PD02 (A1.4)
ME (masking efficiency, Kd of the activatable antibody divided by Kd of the parental antibody) [2]: 18

B3: PD-1 1.4 PD009 2001 (antibody, human IgG4 S228P, kappa)
heavy: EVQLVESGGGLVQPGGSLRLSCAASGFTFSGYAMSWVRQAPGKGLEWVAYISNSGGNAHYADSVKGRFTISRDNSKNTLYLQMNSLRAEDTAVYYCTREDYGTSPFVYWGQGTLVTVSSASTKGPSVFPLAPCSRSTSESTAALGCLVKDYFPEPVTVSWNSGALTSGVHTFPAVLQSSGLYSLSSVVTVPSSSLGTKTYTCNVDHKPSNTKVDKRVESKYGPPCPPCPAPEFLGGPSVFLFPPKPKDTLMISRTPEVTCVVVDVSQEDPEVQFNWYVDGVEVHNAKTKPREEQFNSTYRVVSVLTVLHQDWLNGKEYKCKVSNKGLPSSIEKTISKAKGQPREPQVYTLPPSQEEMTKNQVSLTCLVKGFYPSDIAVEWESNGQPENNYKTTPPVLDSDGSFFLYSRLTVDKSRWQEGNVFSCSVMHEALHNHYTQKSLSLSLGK
light: QGQSGQGAPRTCYTYQCSSFYTGGGSSGGSISSGLLSGRSDNHGGGSDIQLTQSPSSLSASVGDRVTITCRASESVDSYGISFMNWFQQKPGKAPKLLIYAASNQGSGVPSRFSGSGSGTDFTLTISSMQPEDFATYYCQQSKDVPWTFGQGTKLEIKRTVAAPSVFIFPPSDEQLKSGTASVVCLLNNFYPREAKVQWKVDNALQSGNSQESVTEQDSKDSTYSLSSTLTLSKADYEKHKVYACEVTHQGLSSPVTKSFNRGEC
notes: also called PD09 (A1.4)
ME (masking efficiency, Kd of the activatable antibody divided by Kd of the parental antibody) [2]: 2

B4: m245-M3-MHC728 (antibody, V domains shown)
VH: EVKLVESGGGLVKPGGSLKLSCAASGFTFSNYAMSWVRQTPAKRLEWVAYISNGGGDTHYPDSLKGRFTVSRDNAKNTLYLQMSSLKSEDTAMYYCARENYGTSPFVYWGQGTLVTVSA
VL: not shown
notes: mouse hybridoma antibody, mIgG2a/K
Kd [1]: 0.22 nM

B5: m136-M13-MHC723 (antibody, V domains shown)
VH: B4 VH with N31G, G54S, D57N, T58A, L64V, V70I, K87R, A97T, N100D
VL: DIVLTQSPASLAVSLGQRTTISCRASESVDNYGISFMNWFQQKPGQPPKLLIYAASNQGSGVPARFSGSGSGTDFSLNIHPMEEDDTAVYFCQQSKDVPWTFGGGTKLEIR
notes: as for B1
IC50 [3]: 3.3 nM
IC50 [4]: 2 nM
Kd [1]: 0.19 nM

B6: m136-M14-MHC724 (antibody, V domains shown)
VH: KVMLVESGGDLVKPGGSLKLSCAASGFTFSSYGMSWVRQTPEKRLEWVATISGGGRDIYYADTVKGRFTISRDNAKNTLYLQMSSLRSEDTALYFCARLYLGFDYWGQGTTLTVSS
VL: DIQMTQSPASQSASLGESVTITCLASQTIGTWLAWYQQKPGKSPQLLIYAATSLADGVPSRFSGSGSGTKFSFKISSLQAEDFVSYYCQQLYSIPWTFGGGTKLEIK
notes: as for B4
IC50 [3]: 4.8 nM
IC50 [4]: 2.8 nM
Kd [1]: 0.19 nM

B7: m136-M19-MHC725 (antibody, V domains shown)
VH: EVQLQQSGPELVKPGDSVKMSCKASGYTFTDYYMDWVKQSHGKSLEWIGYIYPKNGGSSYNQKFKGKATLTVDKSSSTAYMELHSLTSEDSAVYYCARKVVATDYWGQGTTLTVSS
VL: DIVMSQSPSSLAVSVGEKVTMSCKSSQSLLYSSNQKNYLAWYQQKPGQSPKLLIFWASIRESGVPDRFTGSGSGTDFTLTISSVKAEDRAVYYCQQCDSYPWTFGGGTKLEIK
notes: mouse hybridoma antibody, mIgG2b/K
Kd [1]: 0.23 nM

B8: J43v2 mIgG2a (antibody, V domains shown)
VH: EVRLLESGGGLVKPEGSLKLSCVASGFTFSDYFMSWVRQAPGKGLEWVAHIYTKSYNYATYYSGSVKGRFTISRDDSRSMVYLQMNNLRTEDTATYYCTRDGSGYPSLDFWGQGTQVTVSS
VL: YELTQPPSASVNVGETVKITCSGDQLPKYFADWFHQRSDQTILQVIYDDNKRPSGIPERISGSSSGTTATLTIRDVRAEDEGDYYCFSGYVDSDSKLYVFGSGTQLTVLG
notes: also called J43 m2a; J43v2 m2a
binding result [5]: binds
